Measurements reported in patent US20010004522A1, “KINASE ACTIVITY MEASUREMENT USING FLUORESCENCE POLARIZATION” (priority 1997, published 2001).
Values belong to the molecule of their own block, whether it stands above or below them.

Key:
EGF receptor = EGF receptor (Homo sapiens, UniProt P00533); conditions: 50 mM EDTA, ~12.5 nM EGF receptor, 30° C., polarization read every 10 seconds
[1] = molecular target: T1, T-cell protein tyrosine phosphatase (Homo sapiens, UniProt P17706); assay: Phosphatase activity by fluorescence polarization; format: biochemical; conditions: 1.0 mM Na3VO4, 0.5 U T-cell protein tyrosine phosphatase, 30° C.
T1 construct: purchased New England Biolabs
T1 sequence (P17706 1-317 limits assumed): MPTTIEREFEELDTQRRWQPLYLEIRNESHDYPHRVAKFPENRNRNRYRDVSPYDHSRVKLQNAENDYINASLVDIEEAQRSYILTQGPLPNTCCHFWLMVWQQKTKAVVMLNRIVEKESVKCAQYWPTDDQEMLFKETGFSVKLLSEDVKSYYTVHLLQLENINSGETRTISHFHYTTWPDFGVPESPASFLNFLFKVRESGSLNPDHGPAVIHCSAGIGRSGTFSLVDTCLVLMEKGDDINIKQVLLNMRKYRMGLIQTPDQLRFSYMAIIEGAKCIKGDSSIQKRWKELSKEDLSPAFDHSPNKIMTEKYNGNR
Protocol: Fluorescence polarization can also be used to measure phosphatase activity.
Phosphatase enzyme was added to a high polarization mixture and as it removed the phosphate from the peptide, the antibody was released, and the polarization value went down, shown in FIG. 13. Two control experiments were performed. […] This assay was performed with all of the reaction and detection components present in a test tube. However, this reaction could also be done as an endpoint assay with aliquots of the reaction taken at incremental time points, or with different reactions started at the same time but terminated at incremental time points.

GFAP peptide = assay: Radioactive (32P) kinase assay of PKC isozymes on GFAP peptide; format: biochemical; conditions: GFAP peptide 100 μg/ml, 10 μM ATP, 100 μM CaCl2, no EGTA
[2] = molecular target: T2, PKC Epsilon (ε) substrate peptide (Homo sapiens, UniProt Q02156); assay: PKC activity assay, phospholipid dependence; format: biochemical
T2 construct: made in house
T2 sequence (Q02156 1-737): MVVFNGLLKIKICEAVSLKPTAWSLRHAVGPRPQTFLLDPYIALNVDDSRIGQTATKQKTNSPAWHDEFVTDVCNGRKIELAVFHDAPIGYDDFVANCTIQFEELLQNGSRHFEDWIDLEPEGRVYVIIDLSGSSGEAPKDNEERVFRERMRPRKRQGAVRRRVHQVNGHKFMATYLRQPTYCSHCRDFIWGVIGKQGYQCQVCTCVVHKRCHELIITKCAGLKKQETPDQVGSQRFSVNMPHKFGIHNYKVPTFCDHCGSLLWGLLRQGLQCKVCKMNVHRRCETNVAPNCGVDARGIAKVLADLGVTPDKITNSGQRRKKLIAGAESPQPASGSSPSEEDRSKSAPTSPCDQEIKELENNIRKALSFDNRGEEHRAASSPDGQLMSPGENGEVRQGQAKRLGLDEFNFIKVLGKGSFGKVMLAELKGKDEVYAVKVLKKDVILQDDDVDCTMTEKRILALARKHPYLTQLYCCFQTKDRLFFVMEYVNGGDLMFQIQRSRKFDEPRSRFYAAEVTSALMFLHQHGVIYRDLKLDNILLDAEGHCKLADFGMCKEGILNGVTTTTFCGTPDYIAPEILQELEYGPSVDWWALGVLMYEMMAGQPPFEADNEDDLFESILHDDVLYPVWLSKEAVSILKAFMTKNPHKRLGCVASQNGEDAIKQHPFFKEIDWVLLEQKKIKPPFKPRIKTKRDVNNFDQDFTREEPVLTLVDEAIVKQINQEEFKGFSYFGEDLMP
Description: The purpose of this protocol is to provide the reader with the conditions that we use to determine the activity and phospholipid dependence of Protein Kinase C ε. This protein is purified to near homogeneity and may behave differently from crude preparations. The calculated molecular weight of the protein is 83.5 kDa. Apparent molecular weights of 89-96 kDa have been reported in the literature, and the protein may run as a doublet (1). […] With the assay described in this protocol, we typically see a two-fold phosphatidylserine stimulation of activity. There are many factors that can affect the phospholipid dependence of this enzyme and it will display different degrees of dependency for different substrates. The quality of the lipids used is very important and can affect the lipid dependency dramatically. The reaction conditions given in this protocol and the enzyme concentration ranges used give linear reaction kinetics over at least ten minutes.
[…] of Phosphatidylserine (1.2 μl of 10 mg/ml PS Stock) and […] of diacylglycerol (0.6 μl of 2 mg/ml DAG Stock) are needed per reaction. Determine the total amount of each needed for the number of reactions one is running and make up 10% more lipid mix than required to account for pipetting loss.
Using a Hamilton syringe (remember to clean out with methanol), transfer the required volume of each lipid stock to a 12×75 mm glass test tube. Thoroughly dry down the chloroform with a nitrogen stream and gentle rotation of the tube. Resuspend the dried mixture with 10 μl buffer per reaction. Resuspension buffer is 10 mM HEPES, pH 7.4/0.3% Triton X-100. Vortex into solution/suspension. This will take at least two minutes of vortexing. Place the lipid mix in a 40° C. water bath for 5 minutes prior to adding to the reaction mix.
1). Make up the reaction mix. All assays should be done in triplicate. Two blanks (reaction mix with no enzyme added) should be included and one tube for determining the total cpm's in a reaction.
2). Dispense 60 μl of mix into each tube and place tubes at 30° C.
3). Dilute the protein to be assayed to between 20 and 50 ng/μl.
4). Add 2 μl of diluted enzyme to each tube at 20 second intervals. Blanks have no enzyme added.
5). Stop reactions at 10 minutes by adding 6 μl 5% phosphoric acid.
6). Incubate on ice for 5 minutes.
7). Spot 5 μl of reaction mix on to two phosphocellulose membranes. These are the “Totals”.
8). Transfer 55 μl from each tube to phosphocellulose membranes. Allow to dry. Wash the membranes three times with 5 ml 0.5% phosphoric acid per filter in a 400 ml beaker.
9). Transfer membranes to scintillation vials and count (drying is not necessary). […]

Chain of EGF receptor (P00533 25-1210): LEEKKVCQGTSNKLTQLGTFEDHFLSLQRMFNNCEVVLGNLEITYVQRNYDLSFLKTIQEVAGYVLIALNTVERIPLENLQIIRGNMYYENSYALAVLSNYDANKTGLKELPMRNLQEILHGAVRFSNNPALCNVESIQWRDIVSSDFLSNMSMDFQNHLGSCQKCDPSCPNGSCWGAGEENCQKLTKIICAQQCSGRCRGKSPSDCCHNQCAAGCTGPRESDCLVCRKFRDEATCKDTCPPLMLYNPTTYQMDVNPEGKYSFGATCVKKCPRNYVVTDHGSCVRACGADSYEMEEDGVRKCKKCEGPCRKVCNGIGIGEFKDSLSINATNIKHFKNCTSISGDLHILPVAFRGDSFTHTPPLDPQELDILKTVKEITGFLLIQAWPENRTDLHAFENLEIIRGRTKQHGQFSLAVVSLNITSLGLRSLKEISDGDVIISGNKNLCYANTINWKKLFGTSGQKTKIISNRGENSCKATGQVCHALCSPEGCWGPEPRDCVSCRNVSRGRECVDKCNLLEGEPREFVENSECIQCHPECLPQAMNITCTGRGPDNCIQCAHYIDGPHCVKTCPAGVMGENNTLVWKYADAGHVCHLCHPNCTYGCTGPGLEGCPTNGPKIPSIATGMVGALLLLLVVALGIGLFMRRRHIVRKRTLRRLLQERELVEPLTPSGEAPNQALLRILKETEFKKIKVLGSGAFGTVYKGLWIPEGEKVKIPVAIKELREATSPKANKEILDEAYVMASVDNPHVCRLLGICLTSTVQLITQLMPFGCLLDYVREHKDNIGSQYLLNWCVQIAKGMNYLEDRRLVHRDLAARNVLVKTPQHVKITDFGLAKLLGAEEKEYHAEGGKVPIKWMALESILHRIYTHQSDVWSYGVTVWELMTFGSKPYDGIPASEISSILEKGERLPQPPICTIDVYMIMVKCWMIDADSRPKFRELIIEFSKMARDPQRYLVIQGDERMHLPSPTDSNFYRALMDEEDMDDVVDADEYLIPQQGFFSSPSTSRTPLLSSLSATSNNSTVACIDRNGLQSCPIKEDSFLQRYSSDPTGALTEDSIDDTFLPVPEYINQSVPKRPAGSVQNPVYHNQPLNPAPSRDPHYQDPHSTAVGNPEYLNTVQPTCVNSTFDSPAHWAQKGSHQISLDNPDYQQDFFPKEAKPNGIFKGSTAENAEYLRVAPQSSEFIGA

- polarization value (phosphatase activity) [1]: remained constant
Molecule: [Na+].[Na+].[Na+].[O]=[V]([O-])([O-])[O-] [vanadate, Na3VO4]

- % Activity ([2]; No Lipid Activators): 59%
- % Activity ([2]; PS/DAG): 100%
B2: PKC ε lot #6747: Protein Kinase C ε purified to near homogeneity, current lot of the enzyme (protein, UniProt Q02156 1-737, looked up)
Protein kinase C epsilon type: MVVFNGLLKIKICEAVSLKPTAWSLRHAVGPRPQTFLLDPYIALNVDDSRIGQTATKQKTNSPAWHDEFVTDVCNGRKIELAVFHDAPIGYDDFVANCTIQFEELLQNGSRHFEDWIDLEPEGRVYVIIDLSGSSGEAPKDNEERVFRERMRPRKRQGAVRRRVHQVNGHKFMATYLRQPTYCSHCRDFIWGVIGKQGYQCQVCTCVVHKRCHELIITKCAGLKKQETPDQVGSQRFSVNMPHKFGIHNYKVPTFCDHCGSLLWGLLRQGLQCKVCKMNVHRRCETNVAPNCGVDARGIAKVLADLGVTPDKITNSGQRRKKLIAGAESPQPASGSSPSEEDRSKSAPTSPCDQEIKELENNIRKALSFDNRGEEHRAASSPDGQLMSPGENGEVRQGQAKRLGLDEFNFIKVLGKGSFGKVMLAELKGKDEVYAVKVLKKDVILQDDDVDCTMTEKRILALARKHPYLTQLYCCFQTKDRLFFVMEYVNGGDLMFQIQRSRKFDEPRSRFYAAEVTSALMFLHQHGVIYRDLKLDNILLDAEGHCKLADFGMCKEGILNGVTTTTFCGTPDYIAPEILQELEYGPSVDWWALGVLMYEMMAGQPPFEADNEDDLFESILHDDVLYPVWLSKEAVSILKAFMTKNPHKRLGCVASQNGEDAIKQHPFFKEIDWVLLEQKKIKPPFKPRIKTKRDVNNFDQDFTREEPVLTLVDEAIVKQINQEEFKGFSYFGEDLMP
- Specific Activity ([2]; No Lipid Activators): 743
- Specific Activity ([2]; PS/DAG): 1250

The next lines start with the molecule.

Molecule: O=C(O)CN(CCN(CC(=O)O)CC(=O)O)CC(=O)O [EDTA]
- EGF receptor kinase activity (EGF receptor): inhibits

B1: PKC epsilon: PKC isozyme tested for phosphorylation of GFAP peptide (protein, UniProt Q02156 1-737, looked up)
Protein kinase C epsilon type: MVVFNGLLKIKICEAVSLKPTAWSLRHAVGPRPQTFLLDPYIALNVDDSRIGQTATKQKTNSPAWHDEFVTDVCNGRKIELAVFHDAPIGYDDFVANCTIQFEELLQNGSRHFEDWIDLEPEGRVYVIIDLSGSSGEAPKDNEERVFRERMRPRKRQGAVRRRVHQVNGHKFMATYLRQPTYCSHCRDFIWGVIGKQGYQCQVCTCVVHKRCHELIITKCAGLKKQETPDQVGSQRFSVNMPHKFGIHNYKVPTFCDHCGSLLWGLLRQGLQCKVCKMNVHRRCETNVAPNCGVDARGIAKVLADLGVTPDKITNSGQRRKKLIAGAESPQPASGSSPSEEDRSKSAPTSPCDQEIKELENNIRKALSFDNRGEEHRAASSPDGQLMSPGENGEVRQGQAKRLGLDEFNFIKVLGKGSFGKVMLAELKGKDEVYAVKVLKKDVILQDDDVDCTMTEKRILALARKHPYLTQLYCCFQTKDRLFFVMEYVNGGDLMFQIQRSRKFDEPRSRFYAAEVTSALMFLHQHGVIYRDLKLDNILLDAEGHCKLADFGMCKEGILNGVTTTTFCGTPDYIAPEILQELEYGPSVDWWALGVLMYEMMAGQPPFEADNEDDLFESILHDDVLYPVWLSKEAVSILKAFMTKNPHKRLGCVASQNGEDAIKQHPFFKEIDWVLLEQKKIKPPFKPRIKTKRDVNNFDQDFTREEPVLTLVDEAIVKQINQEEFKGFSYFGEDLMP
- substrate phosphorylated (radioactive data for FIG. 6) (GFAP peptide): 1.47%
